According to patent publication US20160136231A1:

Target: mouse ChemR23, PathHunter β-Arrestin cell line (mouse) (UniProt P97468)
Experiment: cell-based or functional assay

Sequence of mouse ChemR23, PathHunter β-Arrestin cell line (mouse) (P97468 whole entry): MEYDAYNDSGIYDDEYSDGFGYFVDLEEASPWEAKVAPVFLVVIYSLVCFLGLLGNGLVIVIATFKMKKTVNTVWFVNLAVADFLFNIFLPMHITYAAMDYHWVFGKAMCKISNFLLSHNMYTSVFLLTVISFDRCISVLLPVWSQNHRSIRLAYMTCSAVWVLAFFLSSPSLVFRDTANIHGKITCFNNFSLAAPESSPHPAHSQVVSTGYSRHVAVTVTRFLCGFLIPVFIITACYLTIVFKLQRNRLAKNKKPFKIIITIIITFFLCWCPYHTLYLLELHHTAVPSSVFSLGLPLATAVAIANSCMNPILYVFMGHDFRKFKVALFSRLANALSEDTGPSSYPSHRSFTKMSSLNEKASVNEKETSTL

Substance: hrChemerin (from UniProt Q99969 21-157) (ligand)
- EC50, Arrestin, Agonist (RC50, uM): 0.00154 µM
